Each block holds one binder with its values, some of them ahead of it. Starred links: 1 amine or outer side, 2 acyl side, 3 side chain; linkers in the order of their positions; H or OH if unused. Non-standard residues stand in square brackets, D forms with d. Groups on a side chain read outwards from the residue. Primed or numbered codes have the meaning given here. No end group written: not given here. *: point of attachment. γGlu = O=C(O)[C@H](CCC(=O)[*:2])N[*:1]; αMeF = C[C@](N)(Cc1ccccc1)C(=O)O; αMeK = C[C@](N)(CCCCN)C(=O)O; Lauroyl = CCCCCCCCCCCC(=O)*; αMeS = C[C@](N)(CO)C(=O)O; PEG2′ = not defined here; Aib = CC(C)(N)C(=O)O
Key:
Assay in all cases: cell-based or functional assay
[1] = molecular target: T1, GLP-1R in the INS1e assay (UniProt P32301 22-463, limits assumed)
T1 sequence (looked up): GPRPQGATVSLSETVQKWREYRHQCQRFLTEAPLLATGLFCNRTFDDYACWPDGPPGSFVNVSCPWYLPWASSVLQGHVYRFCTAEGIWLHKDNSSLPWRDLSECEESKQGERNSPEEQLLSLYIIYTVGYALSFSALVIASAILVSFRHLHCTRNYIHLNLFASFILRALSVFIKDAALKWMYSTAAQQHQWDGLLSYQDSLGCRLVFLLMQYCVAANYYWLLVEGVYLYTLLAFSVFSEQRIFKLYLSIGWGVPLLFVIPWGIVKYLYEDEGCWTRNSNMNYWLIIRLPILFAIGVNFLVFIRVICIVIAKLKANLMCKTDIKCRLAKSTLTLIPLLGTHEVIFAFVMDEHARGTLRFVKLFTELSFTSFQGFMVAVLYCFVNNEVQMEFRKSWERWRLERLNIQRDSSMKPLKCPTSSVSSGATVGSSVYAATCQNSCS

[2] = molecular target: GLP-1 receptor (GLP-1R), primary cAMP assay cell line (human, UniProt P43220 24-463)
[3] = molecular target: glucagon receptor (GCGR), primary cAMP assay cell line (human, UniProt P47871 26-477)
Chain of glucagon receptor (GCGR), primary cAMP assay cell line (P47871 26-477): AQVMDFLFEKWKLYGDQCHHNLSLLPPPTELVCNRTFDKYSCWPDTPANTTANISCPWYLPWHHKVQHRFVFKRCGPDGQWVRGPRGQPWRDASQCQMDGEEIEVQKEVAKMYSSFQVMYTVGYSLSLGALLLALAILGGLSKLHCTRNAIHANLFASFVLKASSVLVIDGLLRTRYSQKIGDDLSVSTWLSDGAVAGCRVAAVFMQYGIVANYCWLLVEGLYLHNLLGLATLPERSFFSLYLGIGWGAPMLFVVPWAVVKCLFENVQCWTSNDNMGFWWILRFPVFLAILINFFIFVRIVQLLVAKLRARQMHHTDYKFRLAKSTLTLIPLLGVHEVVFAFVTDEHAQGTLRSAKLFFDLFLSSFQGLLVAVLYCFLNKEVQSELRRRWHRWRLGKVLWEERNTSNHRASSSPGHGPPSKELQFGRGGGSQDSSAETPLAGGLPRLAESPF

[4] = molecular target: T2, glucose-dependent insulinotropic peptide (gastric inhibitory polypeptide) receptor (GIPR), primary cAMP assay … (human, UniProt P48546 22-466)
T2 sequence (looked up): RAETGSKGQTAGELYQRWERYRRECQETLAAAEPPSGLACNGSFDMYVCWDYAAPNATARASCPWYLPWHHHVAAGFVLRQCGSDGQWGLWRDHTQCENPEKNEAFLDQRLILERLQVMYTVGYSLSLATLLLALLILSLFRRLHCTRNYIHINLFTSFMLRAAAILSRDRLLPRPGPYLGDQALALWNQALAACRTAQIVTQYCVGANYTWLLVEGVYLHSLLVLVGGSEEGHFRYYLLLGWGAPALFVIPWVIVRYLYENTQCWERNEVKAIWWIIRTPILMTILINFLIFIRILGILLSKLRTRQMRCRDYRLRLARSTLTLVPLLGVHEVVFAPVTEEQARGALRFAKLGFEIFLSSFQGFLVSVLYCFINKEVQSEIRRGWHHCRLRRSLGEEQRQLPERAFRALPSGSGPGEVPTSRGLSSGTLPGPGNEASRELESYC

Binder: H[Aib]EGS[αMeF]TSDK([PEG2′-PEG2′-γGlu-Lauroyl])SSYLEGEAA[αMeK]K([PEG2′-PEG2′-γGlu-Lauroyl])FIAK([PEG2′-PEG2′-γGlu-Lauroyl])VVEGG-NH2 [SEQ ID NO: 458]
cAMP INS1e assay EC50, Mean pM GLP-1R [1]: 3370 pM
cAMP INS1e assay EC50, n1 [1]: 3.07 nM
cAMP INS1e assay EC50, n2 [1]: 3.67 nM
cAMP Primary assay EC50, Mean pM GLP-1R [2]: 41.4 pM
cAMP Primary assay EC50, n1 [2]: 36.3 pM
cAMP Primary assay EC50, n2 [2]: 46.4 pM
cAMP Primary assay EC50, n1 [3]: 20 nM
cAMP Primary assay EC50, n2 [3]: 20 nM
cAMP Primary assay EC50, n1 [4]: 20 nM
cAMP Primary assay EC50, n2 [4]: 20 nM

Binder: H[Aib]EGS[αMeF]TSDVSK([PEG2′-PEG2′-γGlu-Lauroyl])YLEGEAA[αMeK]K([PEG2′-PEG2′-γGlu-Lauroyl])FIAK([PEG2′-PEG2′-γGlu-Lauroyl])VVEGG-NH2 [SEQ ID NO: 462]
cAMP INS1e assay EC50, Mean pM GLP-1R [1]: 4560 pM
cAMP INS1e assay EC50, n1 [1]: 5.4 nM
cAMP INS1e assay EC50, n2 [1]: 3.73 nM
cAMP Primary assay EC50, Mean pM GLP-1R [2]: 47 pM
cAMP Primary assay EC50, n1 [2]: 37.6 pM
cAMP Primary assay EC50, n2 [2]: 56.4 pM
cAMP Primary assay EC50, n1 [3]: 20 nM
cAMP Primary assay EC50, n2 [3]: 20 nM
cAMP Primary assay EC50, n1 [4]: 20 nM
cAMP Primary assay EC50, n2 [4]: 20 nM

Binder: H[Aib]EGS[αMeF]TSDV[αMeS]SK([PEG2′-PEG2′-γGlu-Lauroyl])LEGK([PEG2′-PEG2′-γGlu-Lauroyl])AA[αMeK]EFIAK([PEG2′-PEG2′-γGlu-Lauroyl])VVEGG-NH2 [SEQ ID NO: 464]
cAMP INS1e assay EC50, Mean pM GLP-1R [1]: 4020 pM
cAMP INS1e assay EC50, n1 [1]: 4.46 nM
cAMP INS1e assay EC50, n2 [1]: 3.57 nM
cAMP Primary assay EC50, Mean pM GLP-1R [2]: 30.3 pM
cAMP Primary assay EC50, n1 [2]: 25.4 pM
cAMP Primary assay EC50, n2 [2]: 35.1 pM
cAMP Primary assay EC50, n1 [3]: 20.2 nM
cAMP Primary assay EC50, n2 [3]: 20.2 nM
cAMP Primary assay EC50, n1 [4]: 20.2 nM
cAMP Primary assay EC50, n2 [4]: 20.2 nM

Binder: H[Aib]EGS[αMeF]TSDV[αMeS]SK([PEG2′-PEG2′-γGlu-Lauroyl])LEGEAA[αMeK]K([PEG2′-PEG2′-γGlu-Lauroyl])FIAK([PEG2′-PEG2′-γGlu-Lauroyl])VVEGG-NH2 [SEQ ID NO: 466]
cAMP INS1e assay EC50, Mean pM GLP-1R [1]: 3200 pM
cAMP INS1e assay EC50, n1 [1]: 3.86 nM
cAMP INS1e assay EC50, n2 [1]: 2.55 nM
cAMP Primary assay EC50, Mean pM GLP-1R [2]: 22.4 pM
cAMP Primary assay EC50, n1 [2]: 17.2 pM
cAMP Primary assay EC50, n2 [2]: 27.5 pM
cAMP Primary assay EC50, n1 [3]: 20.2 nM
cAMP Primary assay EC50, n2 [3]: 20.2 nM
cAMP Primary assay EC50, n1 [4]: 20.2 nM
cAMP Primary assay EC50, n2 [4]: 20.2 nM

Binder: H[Aib]EGS[αMeF]TSDV[αMeS]SYK([PEG2′-PEG2′-γGlu-Lauroyl])EK([PEG2′-PEG2′-γGlu-Lauroyl])EAA[αMeK]EFIAK([PEG2′-PEG2′-γGlu-Lauroyl])VVEGG-NH2 [SEQ ID NO: 467]
cAMP INS1e assay EC50, Mean pM GLP-1R [1]: 8920 pM
cAMP INS1e assay EC50, n1 [1]: 9.92 nM
cAMP INS1e assay EC50, n2 [1]: 7.91 nM
cAMP Primary assay EC50, Mean pM GLP-1R [2]: 55.4 pM
cAMP Primary assay EC50, n1 [2]: 49.3 pM
cAMP Primary assay EC50, n2 [2]: 61.5 pM
cAMP Primary assay EC50, n1 [3]: 19.8 nM
cAMP Primary assay EC50, n2 [3]: 19.8 nM
cAMP Primary assay EC50, n1 [4]: 19.8 nM
cAMP Primary assay EC50, n2 [4]: 19.8 nM

Binder: H[Aib]EGS[αMeF]TSDV[αMeS]SYK([PEG2′-PEG2′-γGlu-Lauroyl])EGEAA[αMeK]K([PEG2′-PEG2′-γGlu-Lauroyl])FIAK([PEG2′-PEG2′-γGlu-Lauroyl])VVEGG-NH2 [SEQ ID NO: 470]
cAMP INS1e assay EC50, Mean pM GLP-1R [1]: 3660 pM
cAMP INS1e assay EC50, n1 [1]: 3.84 nM
cAMP INS1e assay EC50, n2 [1]: 3.48 nM
cAMP Primary assay EC50, Mean pM GLP-1R [2]: 31.3 pM
cAMP Primary assay EC50, n1 [2]: 26 pM
cAMP Primary assay EC50, n2 [2]: 36.5 pM
cAMP Primary assay EC50, n1 [3]: 20 nM
cAMP Primary assay EC50, n2 [3]: 20 nM
cAMP Primary assay EC50, n1 [4]: 20 nM
cAMP Primary assay EC50, n2 [4]: 20 nM

Binder: H[Aib]EGS[αMeF]TSDV[αMeS]SK([PEG2′-PEG2′-γGlu-Lauroyl])LEGK([PEG2′-PEG2′-γGlu-Lauroyl])AA[αMeK]EFIAFK([PEG2′-PEG2′-γGlu-Lauroyl])VEGG-NH2 [SEQ ID NO: 480]
cAMP INS1e assay EC50, Mean pM GLP-1R [1]: 6530 pM
cAMP INS1e assay EC50, n1 [1]: 9.37 nM
cAMP INS1e assay EC50, n2 [1]: 3.69 nM
cAMP Primary assay EC50, Mean pM GLP-1R [2]: 57.5 pM
cAMP Primary assay EC50, n1 [2]: 56 pM
cAMP Primary assay EC50, n2 [2]: 58.9 pM
cAMP Primary assay EC50, n1 [3]: 20 nM
cAMP Primary assay EC50, n2 [3]: 20 nM
cAMP Primary assay EC50, n1 [4]: 20 nM
cAMP Primary assay EC50, n2 [4]: 20 nM

Results, then the binder that gave them:

cAMP INS1e assay EC50, Mean pM GLP-1R [1]: 6810 pM
cAMP INS1e assay EC50, n1 [1]: 6.38 nM
cAMP INS1e assay EC50, n2 [1]: 7.24 nM
cAMP Primary assay EC50, Mean pM GLP-1R [2]: 49 pM
cAMP Primary assay EC50, n1 [2]: 28 pM
cAMP Primary assay EC50, n2 [2]: 70 pM
cAMP Primary assay EC50, n1 [3]: 19.9 nM
cAMP Primary assay EC50, n2 [3]: 19.9 nM
cAMP Primary assay EC50, n1 [4]: 19.9 nM
cAMP Primary assay EC50, n2 [4]: 19.9 nM
Binder: H[Aib]EGS[αMeF]TSDV[αMeS]SK([PEG2′-PEG2′-γGlu-Lauroyl])LEGEAA[αMeK]K([PEG2′-PEG2′-γGlu-Lauroyl])FIK([PEG2′-PEG2′-γGlu-Lauroyl])FVVEGG-NH2 [SEQ ID NO: 450]

cAMP INS1e assay EC50, Mean pM GLP-1R [1]: 5540 pM
cAMP INS1e assay EC50, n1 [1]: 4.1 nM
cAMP INS1e assay EC50, n2 [1]: 6.99 nM
cAMP Primary assay EC50, Mean pM GLP-1R [2]: 43.7 pM
cAMP Primary assay EC50, n1 [2]: 22.1 pM
cAMP Primary assay EC50, n2 [2]: 65.2 pM
cAMP Primary assay EC50, n1 [3]: 19.7 nM
cAMP Primary assay EC50, n2 [3]: 19.7 nM
cAMP Primary assay EC50, n1 [4]: 19.7 nM
cAMP Primary assay EC50, n2 [4]: 19.7 nM
Binder: H[Aib]EGS[αMeF]TSDV[αMeS]SYK([PEG2′-PEG2′-γGlu-Lauroyl])EGEAA[αMeK]K([PEG2′-PEG2′-γGlu-Lauroyl])FIK([PEG2′-PEG2′-γGlu-Lauroyl])FVVEGG-NH2 [SEQ ID NO: 454]

cAMP INS1e assay EC50, Mean pM GLP-1R [1]: 4910 pM
cAMP INS1e assay EC50, n1 [1]: 6.74 nM
cAMP INS1e assay EC50, n2 [1]: 3.08 nM
cAMP Primary assay EC50, Mean pM GLP-1R [2]: 87.4 pM
cAMP Primary assay EC50, n1 [2]: 54.8 pM
cAMP Primary assay EC50, n2 [2]: 120 pM
cAMP Primary assay EC50, n1 [3]: 19.8 nM
cAMP Primary assay EC50, n2 [3]: 19.8 nM
cAMP Primary assay EC50, n1 [4]: 19.8 nM
cAMP Primary assay EC50, n2 [4]: 19.8 nM
Binder: H[Aib]EGS[αMeF]TSDK([PEG2′-PEG2′-γGlu-Lauroyl])SSYLEK([PEG2′-PEG2′-γGlu-Lauroyl])EAA[αMeK]EFIAK([PEG2′-PEG2′-γGlu-Lauroyl])VVEGG-NH2 [SEQ ID NO: 455]

cAMP INS1e assay EC50, Mean pM GLP-1R [1]: 4900 pM
cAMP INS1e assay EC50, n1 [1]: 6.9 nM
cAMP INS1e assay EC50, n2 [1]: 2.89 nM
cAMP Primary assay EC50, Mean pM GLP-1R [2]: 45.4 pM
cAMP Primary assay EC50, n1 [2]: 41.8 pM
cAMP Primary assay EC50, n2 [2]: 49 pM
cAMP Primary assay EC50, n1 [3]: 19.8 nM
cAMP Primary assay EC50, n2 [3]: 19.8 nM
cAMP Primary assay EC50, n1 [4]: 19.8 nM
cAMP Primary assay EC50, n2 [4]: 19.8 nM
Binder: H[Aib]EGS[αMeF]TSDV[αMeS]SYK([PEG2′-PEG2′-γGlu-Lauroyl])EGEK([PEG2′-PEG2′-γGlu-Lauroyl])A[αMeK]EFIAK([PEG2′-PEG2′-γGlu-Lauroyl])VVEGG-NH2 [SEQ ID NO: 469]

Reference: patent US20200079833A1 (AstraZeneca / MedImmune, published 2020)
